Data: US20220242950A1 (CANTARGIA, published 2022)
Residue numbers refer to the chain shown, from its start.

Assays:
[1] = target: T1, recombinant hIL1RAP Domain1+2+3 (aa21-367) (human, UniProt Q9NPH3 21-367); test: bio-layer interferometry, human IL1RAP
T1 construct: Numbering on Uniprot Q9NPH3
T1 sequence (looked up): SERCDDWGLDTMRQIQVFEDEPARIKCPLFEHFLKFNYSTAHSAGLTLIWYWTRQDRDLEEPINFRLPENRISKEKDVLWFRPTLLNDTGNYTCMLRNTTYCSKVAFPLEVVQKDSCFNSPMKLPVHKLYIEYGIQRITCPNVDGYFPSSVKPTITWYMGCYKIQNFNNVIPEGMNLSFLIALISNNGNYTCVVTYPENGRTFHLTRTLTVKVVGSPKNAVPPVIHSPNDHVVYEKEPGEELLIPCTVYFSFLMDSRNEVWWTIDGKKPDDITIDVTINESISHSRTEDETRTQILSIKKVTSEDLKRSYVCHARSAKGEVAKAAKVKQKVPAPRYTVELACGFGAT
Method: (§1) Affinity measurements were done on BLItz™ Label-Free Protein Analysis System from ForteBio, using the Basic Kinetics module in the BLItz Pro 1.3.1.3 software from Molecular Devices. Protein A biosensors were hydrated in blocking buffer (PBS, 0.5% BSA, 0.05% Tween 20, pH 7.4) for minimum 10 min at room temperature before coating. Protein A biosensors were coated with antibodies by dipping the biosensors in 200 μl of antibody solution (10 μg/ml in blocking buffer) for 30 min at room temperature. The sensors were then incubated in 200 μl blocking buffer for at least 10 min before use. […] The baseline was made in blocking buffer with a duration time of 30 sec. Association was made for 120 sec in hIL1RAP followed by 120 sec dissociation in blocking buffer.
KD values for affinity towards human IL1RAP are shown in Table 17 for the de-immunized h48D2 variants. Affinity was measured using bio-layer interferometry. […] See also Table 4 for a direct comparison of 48D2, humanized 48D2, and de-immunized h48D2.

[2] = target: T2, human IL1RAP on the cell surface (human, UniProt Q9NPH3 21-570); test: cell-based or functional assay
T2 sequence (looked up): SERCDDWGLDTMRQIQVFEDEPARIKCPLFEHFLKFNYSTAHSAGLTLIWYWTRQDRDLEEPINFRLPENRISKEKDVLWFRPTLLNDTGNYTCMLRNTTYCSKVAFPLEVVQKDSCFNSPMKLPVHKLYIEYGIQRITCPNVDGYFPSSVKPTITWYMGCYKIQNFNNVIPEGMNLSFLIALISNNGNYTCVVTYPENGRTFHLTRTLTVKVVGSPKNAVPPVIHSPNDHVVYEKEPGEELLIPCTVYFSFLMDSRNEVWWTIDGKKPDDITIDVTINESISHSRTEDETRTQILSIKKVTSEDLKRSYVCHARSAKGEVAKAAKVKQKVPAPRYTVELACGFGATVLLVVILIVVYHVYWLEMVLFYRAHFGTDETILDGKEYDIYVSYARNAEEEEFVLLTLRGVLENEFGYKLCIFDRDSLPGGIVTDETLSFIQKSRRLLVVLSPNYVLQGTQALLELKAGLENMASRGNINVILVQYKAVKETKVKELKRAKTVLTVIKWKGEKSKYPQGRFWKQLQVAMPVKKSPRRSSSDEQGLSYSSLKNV

[3] = target: T1, recombinant hIL1RAP Domain1+2+3 …; test: BLI (BLItz), antibody on Protein A biosensor, hIL1RAP (21-367) in solution
Method: as §1
Affinity measurement results are shown in Table 4 for chimeric 48D2, as well as for humanized 48D2 variant VH5:VL4 (see Example 11) and for humanized and de-immunized 48D2 variant VH5.GL:VL4 (see Example 13). kₐ is the association rate constant, for characterization of the antibody binding to the target, kd is the dissociation rate constant, for characterization of the antibody dissociation from the target, and KD is the equilibrium dissociation constant between the antibody and its antigen, the ratio of kd/kₐ. […] The lower the KD value (lower concentration), the higher the affinity.

[4] = target: T2, human IL1RAP on the cell surface; test: cell-based or functional assay; remark: listed apart in the source
[5] = target: T3, rat IL1RAP (rat (Rattus norvegicus), UniProt Q63621 21-367, limits assumed); test: indirect ELISA on coated IL1RAP, goat anti-human antibody-alkaline phosphatase, absorbance at 405 nm
T3 construct: also called rnIL1RAP
T3 sequence (looked up): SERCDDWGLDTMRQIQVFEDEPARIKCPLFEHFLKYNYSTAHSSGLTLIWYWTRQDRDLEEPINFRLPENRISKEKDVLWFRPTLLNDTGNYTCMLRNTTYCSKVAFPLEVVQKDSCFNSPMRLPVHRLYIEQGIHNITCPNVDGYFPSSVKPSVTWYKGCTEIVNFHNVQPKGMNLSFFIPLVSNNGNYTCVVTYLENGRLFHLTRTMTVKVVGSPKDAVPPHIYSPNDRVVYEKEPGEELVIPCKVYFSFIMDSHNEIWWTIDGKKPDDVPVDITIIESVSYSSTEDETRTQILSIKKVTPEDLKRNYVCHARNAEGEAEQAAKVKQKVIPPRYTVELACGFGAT

[6] = target: T1, recombinant hIL1RAP Domain1+2+3 …; test: as above
[7] = target: T4, recombinant mf IL1RAP aa21-367 (cynomolgus monkey (Macaca fascicularis), UniProt A0A2K5X5J5 21-367); test: as above
T4 construct: also called cynomolgus monkey IL1RAP; cyno IL1RAP
T4 sequence: T1 sequence (looked up) with L183F, T273P, K326T

[8] = target: T5, mouse IL1RAP (mouse (Mus musculus), UniProt Q61730 21-367, limits assumed); test: as above
T5 construct: Coated ortholog in the cross reactivity ELISA; also called mIL1RAP; murine IL1RAP
T5 sequence (looked up): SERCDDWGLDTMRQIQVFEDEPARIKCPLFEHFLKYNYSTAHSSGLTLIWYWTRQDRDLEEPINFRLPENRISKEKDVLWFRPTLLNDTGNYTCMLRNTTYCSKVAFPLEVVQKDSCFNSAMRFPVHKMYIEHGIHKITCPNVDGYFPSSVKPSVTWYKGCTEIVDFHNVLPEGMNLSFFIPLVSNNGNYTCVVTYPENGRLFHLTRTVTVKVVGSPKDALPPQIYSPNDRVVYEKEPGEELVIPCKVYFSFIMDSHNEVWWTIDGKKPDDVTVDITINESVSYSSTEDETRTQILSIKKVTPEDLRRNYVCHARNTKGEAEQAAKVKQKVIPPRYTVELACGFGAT

[9] = target: T6, pig IL1RAP (pig (Sus scrofa), UniProt A0A287B9B9 21-357); test: as above
T6 construct: also called ssIL1RAP
T6 sequence (A0A287B9B9 entry or part of it limits assumed): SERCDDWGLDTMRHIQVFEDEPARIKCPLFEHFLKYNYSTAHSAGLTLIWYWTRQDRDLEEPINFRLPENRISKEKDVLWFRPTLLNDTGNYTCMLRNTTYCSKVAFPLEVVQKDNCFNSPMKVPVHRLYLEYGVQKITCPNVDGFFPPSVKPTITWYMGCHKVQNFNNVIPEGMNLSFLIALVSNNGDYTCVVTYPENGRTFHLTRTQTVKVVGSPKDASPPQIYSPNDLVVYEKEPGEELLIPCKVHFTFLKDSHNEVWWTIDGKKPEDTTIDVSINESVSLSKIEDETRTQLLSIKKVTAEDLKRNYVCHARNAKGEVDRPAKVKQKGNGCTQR

B1: h48D2 VH5.GL:VL4 (antibody, human IgG1, kappa, L234A L235A, V domains shown)
VH: QEQLEESGGGLVKPGGTLSLTCTVSGPSLSHFDITWIRQPPGKGLEWIGTISPGVSTYYASWAKSRVTISVDTSLNTVSLKLSSVTAADTATYFCARGGVGSSWKAFDLWGPGTLVTISS
VL: ELVMTQSPSSVSASVGDRVTITCQASESISTALAWYQQKPGKAPKLLIYKASTLPSGVPSRFSGSGSGTDFTLTINSLQPEDFATYYCQQGFSSGNVHNAFGGGTKVEIKR
notes: Humanized and de-immunized; also called VL4:VH5.GL; 48D2 variant VH5.GL:VL4
- Kd [1]: 2.53 nM
- IC50 of IL-1α signaling (HEK-Blue assay) [2]: 0.268 nM
- IC50 of IL-1β signaling (HEK-Blue assay) [2]: 0.097 nM
- IC50 of IL-33 signaling (HEK-Blue assay) [2]: 7.51 nM
- IC50 of IL-36α signaling (HEK-Blue assay) [2]: 0.147 nM
- IC50 of IL-36β signaling (HEK-Blue assay) [2]: 0.169 nM
- IC50 of IL-36γ signaling (HEK-Blue assay) [2]: 0.206 nM
- Kd [3]: 2.53 nM
- koff [3]: 0.000197 s⁻¹
- kon [3]: 78000 M⁻¹ s⁻¹
- IC50 of IL-33 signaling (HEK-Blue cells stably transfected with the IL-36 receptor) [4]: 0.324 nM
- IC50 of IL-36α signaling (HEK-Blue cells stably transfected with the IL-36 receptor) [4]: 0.0557 nM
- IC50 of IL-36β signaling (HEK-Blue cells stably transfected with the IL-36 receptor) [4]: 0.161 nM
- IC50 of IL-36γ signaling (HEK-Blue cells stably transfected with the IL-36 receptor) [4]: 0.088 nM
- binding result [5]: no binding (tested: 4000 ng/mL)
- EC50 (read off the curve) [6]: ~0.05 µg/mL
- EC50 (read off the curve) [7]: ~0.05 µg/mL
- binding result [8]: no binding (tested: 4000 ng/mL)
- EC50 (read off the curve) [9]: ~0.05 µg/mL
